Test results taken from patent publication US20230203559A1, “METHOD FOR QUANTIFYING ETHANOLAMINE PHOSPHATE, OXIDOREDUCTASE FOR QUANTIFICATION, QUANTIFICATION COMPOSITION, QUANTIFICATION KIT, SENSOR CHIP, AND SENSOR” (KIKKOMAN CORPORATION, priority 2020, published 2023).

How the values were obtained:
[1] = Verification of EAP to EA conversion reaction by ALP, detected with LrHP (4-AA/TOOS/POD, absorbance at 555 nm); format: biochemical; details: 1 mM EAP, LrHP final 25 pg/ml, pH 8.0, 300 seconds
Experimental: A reagent for activity measurement of the following composition was prepared.
A sample containing 1 mM EA was mixed with the reaction reagent (pH 8.0) shown in Table 2 in a 1.5 ml microtube at 4° C. 2 μl of ALP (so that the final concentration is 5 U/ml) was added thereto and incubated at 37° C. for 5 minutes. 20 μl of LrHP (so that the final concentration is 25 pg/ml) was added thereto, mixed by pipetting, transferred to a cuvette, and immediately set in a spectrophotometer (U-3900, manufactured by Hitachi High-Tech Science Corporation), and the absorbance at 555 nm was measured over time for 300 seconds.
Similarly, a sample containing 1 mM EAP was used, and 2 μl of alkaline phosphatase (ALP) or water was added to the reaction reagent (pH 8.0) (so that the final concentration is 5 U/ml) and incubated at 37° C. for 5 minutes. Next, 20 μl of LrHP (so that the final concentration is 25 pg/ml) was added thereto, mixed by pipetting, transferred to a cuvette, and immediately set in a spectrophotometer, and the absorbance at 555 nm was measured over time for 300 seconds.
The time immediately after the addition of LrHP is set to 0 seconds from the start of the measurement. […] This linear increase in absorbance was similar to the tendency to increase in the case where EA was directly used as a substrate instead of acting phosphatase on EAP.

[2] = Measurement of EAP combined with ALP and LrHP in plasma model solution containing contaminating amines; format: biochemical
Experimental: The reaction reagent (pH 8.0) shown in Table 2 was mixed in a 1.5 ml microtube at 4° C. and incubated at 37° C. for 2 minutes. In this case, 47 μl of LrHP was added (so that the final concentration is 1 mg/ml). […] The measurement was paused, 10 μl of alkaline phosphatase (25 U/ml) was added to the cuvette, mixed by pipetting, and immediately set in a spectrophotometer, and the absorbance at 555 nm was measured over time for 500 seconds.

B1: LrHP: hypothetical protein (GenBank ID CDS02610.1), amino acid sequence SEQ ID NO: 11, derived from Lichtheimia ramosa; oxidase acting on EA (protein, listed as Lichtheimia ramosa)
chain: MSSSPIKPYPLDPLTADEIRRAAALIRETRGQDTTYVFNSLTLKEPSKQQMMSYLGWTNSPSHPKPVTIDREVFAVLIDRPSGLVHEMTVNLDKNQVTRWNKVEGRQPTVNVFEMLEAEREILKDERVKEQCRQLGINDMSMVFADPWGVGYHEIKGKRLVQALMYARTSPDDNQYAHPLDFNPLYDVNAKKVIDIIVSKRRNSSFDRPVIPMANHHFLPEHLGQDRLRKDIKPIEITQPQGVSFSIRDGHQLHWQKWDMHLSFNYREGLVINNLSYRDMDGTVRPIIYRMSLSEMVVPYANPYKPYNHKMAFDVGEYGLGNLTNSLELGCDCVGKICYLDATLSDLNGDPWQIPNAICIHEEDTGLLFKHTDYRTGKAHSARSRRLVISHIVTAANYDYGLYYYFYQDGTIQYEVKATGELNTQVLAADEDAAPYGTIVAPQVDAQHHQHLFSMRIDPMVDGPNNSVAEVDVVASDLPVGHPHNSIGNSFYPVTKVFNTTDEAKTMASIERHRSWKIINENKIHPYAKQPVGFKMMAHPTPPLLPKPGSIVYERAMFASKTLWVTPYNEEQRYPGGFYCYQSEPSENLGLPQWTKETQNVRDTDIVCWLNFGITHIPRVEDFPIMPIETCGVMLKPVNFFLGNPGIDIPPSTRQSTKSAYATEATCCRKNNL
change in absorbance at 555 nm (EAP oxidization activity) ([1]; ALP added (final 5 U/ml, 37° C., 5 minutes)): increase in absorbance with time was observed | change in absorbance at 555 nm (EAP oxidization activity) ([1]; ALP not added): no change in absorbance was observed | elimination of EA in the sample ([2]; LrHP final 1 mg/ml, EA 10.4 μM, β-alanine 29 μM, taurine 39.5 μM, EAP 1.5 μM, after 500 seconds): the EA in the sample was exhausted | change in absorbance at 555 nm after 500 seconds ([2]; water added instead of ALP, final EAP 1.5 μM): No change in absorbance occurred
